The text below walks through data of patent US8026218 (UNIVERSITY OF ARIZONA, dated 2011).

Like-named read-outs stand apart in the source and are kept apart here. Bridge positions count the residues as written; N and C are the ends. Square brackets hold non-standard residues; d marks the D form. Ends that are not written are not given here. * marks the point of attachment. O‑Bzl(CF3)2 = C-terminal bis(trifluoromethyl)benzyl ester; NH(3,5-(CF3)2-benzyl) = FC(F)(F)c1cc(CN*)cc(C(F)(F)F)c1; OBzl(3,5-(CF3)2) = FC(F)(F)c1cc(CO*)cc(C(F)(F)F)c1; Met(O) = CS(=O)CC[C@H](N)C(=O)O; Abu = CC[C@H](N)C(=O)O; OBn = c1ccc(CO*)cc1

Experiment [1] addresses T1, rat µ opioid receptor (rat, UniProt P33535 1-398).
T1 construct: whole, on cells; membrane preparations of the transfected cells were used; also called rMOR; MOR
The experiment in a line: competition vs [3H]DAMGO, rMOR cell membranes.

For experiment [2], the target named is T2, human δ opioid receptor (human, UniProt P41143 1-372).
T2 construct: whole, on cells; membrane preparations of the transfected cells were used; also called hDOR; DOR
The experiment in a line: competition vs [3H]DPDPE, hDOR cell membranes.
T2 sequence (P41143 whole entry, stated change not applied): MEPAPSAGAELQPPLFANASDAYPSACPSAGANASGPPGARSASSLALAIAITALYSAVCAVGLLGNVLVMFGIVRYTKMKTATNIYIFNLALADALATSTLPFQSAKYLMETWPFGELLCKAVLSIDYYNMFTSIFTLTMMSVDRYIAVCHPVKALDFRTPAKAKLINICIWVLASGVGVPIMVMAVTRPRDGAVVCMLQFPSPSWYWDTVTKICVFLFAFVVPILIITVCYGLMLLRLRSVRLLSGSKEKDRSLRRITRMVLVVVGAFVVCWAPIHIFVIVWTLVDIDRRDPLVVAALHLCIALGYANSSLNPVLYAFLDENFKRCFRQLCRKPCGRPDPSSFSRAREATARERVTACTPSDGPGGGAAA

The target in experiment [3] is T2, human δ opioid receptor. The experiment in a line: cell-based or functional assay.
Experiment [4] has as its target T1, rat µ opioid receptor. The experiment in a line: cell-based or functional assay.
Experiment [5] concerns the target T3, rat NK1 receptor (rat, UniProt P14600 1-407).
T3 construct: whole, on cells; membrane preparations of the transfected cells were used; also called rNK1; rNK-1
The experiment in a line: competition vs [3H]Substance P, rNK1 CHO cell membranes.
T3 sequence (P14600 whole entry): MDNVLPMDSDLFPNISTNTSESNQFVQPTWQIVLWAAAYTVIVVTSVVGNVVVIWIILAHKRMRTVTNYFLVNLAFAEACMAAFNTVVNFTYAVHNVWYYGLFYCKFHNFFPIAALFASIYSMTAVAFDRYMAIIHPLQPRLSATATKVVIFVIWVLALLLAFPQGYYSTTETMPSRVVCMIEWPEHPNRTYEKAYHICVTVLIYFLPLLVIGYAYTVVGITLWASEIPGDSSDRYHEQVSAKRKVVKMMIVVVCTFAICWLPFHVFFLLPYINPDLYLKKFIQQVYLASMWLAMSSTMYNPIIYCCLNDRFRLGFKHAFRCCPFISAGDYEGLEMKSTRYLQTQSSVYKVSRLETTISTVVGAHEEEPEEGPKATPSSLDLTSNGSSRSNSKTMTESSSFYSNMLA

In experiment [6] the target is T4, human NK1 receptor (human, UniProt P25103 1-407).
T4 construct: whole, on cells; membrane preparations of the transfected cells were used; also called hNK1; human neurokinin-1 receptor
The experiment in a line: competition vs [3H]Substance P, hNK1 CHO cell membranes.
T4 sequence (P25103 whole entry): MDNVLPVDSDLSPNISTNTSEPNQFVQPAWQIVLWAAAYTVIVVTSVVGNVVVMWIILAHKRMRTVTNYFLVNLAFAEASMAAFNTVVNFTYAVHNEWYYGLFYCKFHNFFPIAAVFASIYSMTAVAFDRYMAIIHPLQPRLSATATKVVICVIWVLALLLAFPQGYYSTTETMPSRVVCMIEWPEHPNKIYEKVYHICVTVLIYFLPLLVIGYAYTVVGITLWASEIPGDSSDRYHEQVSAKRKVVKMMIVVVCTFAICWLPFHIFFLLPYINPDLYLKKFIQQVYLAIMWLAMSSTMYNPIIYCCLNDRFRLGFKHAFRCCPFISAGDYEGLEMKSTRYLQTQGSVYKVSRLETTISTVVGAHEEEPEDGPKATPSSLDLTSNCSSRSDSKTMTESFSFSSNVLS

The target in experiment [7] is T3, rat NK1 receptor. The experiment can be described thus: competition vs [3H]Substance P, rNK1 CHO cell membranes. The source holds these as a separate data set.
The target of experiment [8] is T5, rat NK1 receptor (rat, UniProt P14600 1-407).
T5 construct: whole, on cells; Assayed as membrane preparations of transfected CHO cells; also called rNK1; rNK-1
The experiment in a line: competition vs [3H]substance P, membranes of rNK1-transfected CHO cells.
T5 sequence (P14600 whole entry): as the sequence (P14600 whole entry) above

Experiment [9] deals with T6, human δ opioid receptor (human, UniProt P41143 1-372). The experiment can be described thus: cell-based or functional assay. The source holds these as a separate data set.
T6 sequence (P41143 whole entry, stated change not applied): as the sequence (P41143 whole entry, stated change not applied) above
For experiment [10], the target named is T6, human δ opioid receptor. The experiment can be described thus: competition vs [3H]DPDPE, membranes of hDOR-transfected HN9.10 cells.
Experiment [11] deals with guinea pig NK1 receptor (guinea pig, UniProt P30547 1-407). The experiment in a line: cell-based or functional assay.
Target sequence in this assay (P30547 whole entry): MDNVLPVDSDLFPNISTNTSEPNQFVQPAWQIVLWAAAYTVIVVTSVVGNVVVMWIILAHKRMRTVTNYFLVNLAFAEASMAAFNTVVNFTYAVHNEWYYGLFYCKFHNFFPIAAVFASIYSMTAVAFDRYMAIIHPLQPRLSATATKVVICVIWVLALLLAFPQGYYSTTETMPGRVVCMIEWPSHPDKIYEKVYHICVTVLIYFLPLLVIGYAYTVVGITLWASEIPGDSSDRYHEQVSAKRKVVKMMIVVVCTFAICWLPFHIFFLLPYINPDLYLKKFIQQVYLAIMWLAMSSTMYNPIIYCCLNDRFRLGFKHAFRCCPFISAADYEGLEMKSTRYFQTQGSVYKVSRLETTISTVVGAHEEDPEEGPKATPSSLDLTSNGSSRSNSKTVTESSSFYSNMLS
Experiment [12] deals with µ opioid receptor of the guinea pig isolated ileum (guinea pig). The experiment in a line: cell-based or functional assay.
For experiment [13], the target named is T2, human δ opioid receptor. The experiment can be described thus: cell-based or functional assay. The source holds these as a separate data set.
Experiment [14] addresses T1, rat µ opioid receptor. The experiment in a line: cell-based or functional assay. This is another data set of the same source.
Experiment [15] has as its target T2, human δ opioid receptor. The experiment can be described thus: competition vs [3H]DPDPE, hDOR cell membranes. This is another data set of the same source.
Experiment [16] has as its target T1, rat µ opioid receptor. The experiment can be described thus: competition vs [3H]DAMGO, rMOR cell membranes. The source holds these as a separate data set.
Experiment [17] deals with T3, rat NK1 receptor. The experiment in a line: competition vs [3H]Substance P, rNK1 CHO cell membranes. This is another data set of the same source.
Experiment [18] has as its target guinea pig NK1 receptor (guinea pig, UniProt P30547 1-407). The experiment can be described thus: cell-based or functional assay. This is another data set of the same source.
Target sequence in this assay (P30547 whole entry): as above
Experiment [19] addresses µ opioid receptor of the guinea pig isolated ileum (guinea pig, UniProt P97266 1-98). The experiment in a line: cell-based or functional assay.
Experiment [20] has as its target T2, human δ opioid receptor. The experiment in a line: cell-based or functional assay. The source holds these as a separate data set.
Experiment [21] concerns the target T2, human δ opioid receptor. The experiment in a line: competition vs [3H]DPDPE, hDOR cell membranes. This is another data set of the same source.
For experiment [22], the target named is T7, human NK1 receptor (human, UniProt P25103 1-407).
T7 construct: whole, on cells; Assayed as membrane preparations of transfected CHO cells; also called hNK1; human neurokinin-1 receptor
The experiment in a line: competition vs [3H]substance P, membranes of hNK1-transfected CHO cells.
T7 sequence (P25103 whole entry): as the sequence (P25103 whole entry) above

The target of experiment [23] is T5, rat NK1 receptor. The experiment in a line: competition vs [3H]substance P, membranes of rNK1-transfected CHO cells. The source holds these as a separate data set.

T1 sequence (P33535 whole entry): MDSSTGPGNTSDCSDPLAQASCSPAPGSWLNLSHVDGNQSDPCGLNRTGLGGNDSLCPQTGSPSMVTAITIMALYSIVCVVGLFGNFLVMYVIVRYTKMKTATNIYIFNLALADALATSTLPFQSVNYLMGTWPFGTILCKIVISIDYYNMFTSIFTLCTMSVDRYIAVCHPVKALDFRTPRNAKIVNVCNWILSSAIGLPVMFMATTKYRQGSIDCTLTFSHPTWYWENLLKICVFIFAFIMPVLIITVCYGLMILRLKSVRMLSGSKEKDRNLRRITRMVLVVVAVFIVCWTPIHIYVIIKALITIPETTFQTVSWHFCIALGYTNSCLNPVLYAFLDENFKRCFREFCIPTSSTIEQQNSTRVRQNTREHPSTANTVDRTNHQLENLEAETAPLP
µ opioid receptor of the guinea pig isolated ileum, sequence (P97266 whole entry): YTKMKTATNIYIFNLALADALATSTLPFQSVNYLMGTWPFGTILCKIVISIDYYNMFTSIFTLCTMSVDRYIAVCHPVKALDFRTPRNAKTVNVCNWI

B1: Tyr-DAla-Gly-Phe-Ala-Trp-O-Bzl(CF3)2 (peptide)
peptide: Y[dA]GFAW-{O‑Bzl(CF3)2}
notes: also called NP31
With B1, the Ki with rat µ opioid receptor [1] was found to be 3.6 nM; with human δ opioid receptor [2], 1.2 nM; with rat NK1 receptor [5] it was 8.6 nM. Further, the “GTP EMax” value with human δ opioid receptor [3] turned out to be 91; with rat µ opioid receptor [4] it was 50.

B2: Tyr-DAla-Gly-Phe-Pro-Trp-O-Bzl(CF3)2 (peptide)
peptide: Y[dA]GFPW-{O‑Bzl(CF3)2}
notes: also called NP39
On to B2, for which the Ki with rat µ opioid receptor [1] worked out at 14.8 nM; in the experiment with human NK1 receptor [6], 0.1 nM; in the experiment with rat NK1 receptor [5], 1.6 nM. Further, the results for the “GTP EMax” value with human δ opioid receptor [3] and with rat µ opioid receptor [4] were 56 and 47, respectively.

B3: Tyr-DAla-Gly-Phe-Leu-Trp-O-Bzl(CF3)2 (peptide)
peptide: Y[dA]GFLW-{O‑Bzl(CF3)2}
notes: also called NP37
Take B3: the Ki with rat µ opioid receptor [1] was determined as 23.3 nM; in the experiment with human δ opioid receptor [2], 2.9 nM; in the experiment with human NK1 receptor [6], 0.09 nM; with rat NK1 receptor [5], 0.29 nM. Further, the “GTP EMax” value was 60 with human δ opioid receptor [3] and 54 in the experiment with rat µ opioid receptor [4].

B4: Tyr-DAla-Gly-Phe-Met-Trp-O-Bzl(CF3)2 (peptide)
peptide: Y[dA]GFMW-{O‑Bzl(CF3)2}
notes: also called NP38
For B4, the Ki with rat µ opioid receptor [1] was 3.3 nM; in the experiment with human δ opioid receptor [2], 0.6 nM; in the experiment with human NK1 receptor [6] it was 0.009 nM; with rat NK1 receptor [5] it was 0.089 nM. The results for the “GTP EMax” value with human δ opioid receptor [3] and with rat µ opioid receptor [4] were 36 and 51, respectively.

B5: Tyr-DAla-Gly-Phe-D-Ala-Trp-O-Bzl(CF3)2 (peptide)
peptide: Y[dA]GF[dA]W-{O‑Bzl(CF3)2}
notes: also called NP40
Consider B5, for which the Ki in the experiment with rat µ opioid receptor [1] was determined as 2.8 nM; with human δ opioid receptor [2], 3.9 nM; with human NK1 receptor [6], 0.011 nM; with rat NK1 receptor [5], 2.4 nM. The figures for the “GTP EMax” value with human δ opioid receptor [3] and with rat µ opioid receptor [4] were 89 and 19, respectively.

B6: TyrDAlaGlyPheProLeuTrpOBn(CF3)2 (peptide)
peptide: Y[dA]GFPLW-{OBzl(3,5-(CF3)2)}
notes: also called TY001
Molecule B6 gave an IC50 in the experiment with rat NK1 receptor [7] of 21.7 nM.

B7: Tyr-DAla-Gly-Phe-α-Abu-Trp-O-Bzl(CF3)2 (peptide)
peptide: Y[dA]GF[Abu]W-{O‑Bzl(CF3)2}
notes: also called NP33
For the molecule B7, the Ki in the experiment with rat µ opioid receptor [1] stood at 11.4 nM; with human δ opioid receptor [2], 1.6 nM; with human NK1 receptor [6], 0.12 nM; with rat NK1 receptor [5], 1.2 nM. Further, the “GTP EMax” value with human δ opioid receptor [3] was found to be 43; with rat µ opioid receptor [4] it was 32.

B8: H-Tyr-D-Ala-Gly-Phe-Met(O)-Pro-Leu-Trp-O-3,5-Bzl(CF3)2 (peptide)
peptide: H-Y[dA]GF[Met(O)]PLW-{OBzl(3,5-(CF3)2)}
modifications: also: TFA salt
notes: TFA salt; also called TY023
For the molecule B8, in the experiment with rat NK1 receptor [8], the IC50 amounted to 54.5 nM and the LogIC50 was -7.27. Moreover, in the experiment with human δ opioid receptor [9], the “[35S]GTP-γ-S binding Emax” value was determined as 53% and the “[35S]GTP-γ-S binding LogEC50” value is -8.73. Moreover, in the experiment with human δ opioid receptor [10], the Ki worked out at 4.8 nM and the LogIC50 was -7.92. Moreover, the “Substance P GPI antagonist Ke” value in the experiment with guinea pig NK1 receptor [11] was 7.8 nM. For the same molecule, the “GPI (µ) opioid agonist IC50” value in experiment [12] was determined as 154 nM.

B9: Tyr[DCysGlyPheCys]ProLeuTrpNHBn(CF3)2 (peptide)
peptide: Y[dC]GFCPLW-{NH(3,5-(CF3)2-benzyl)}
modifications: disulfide 2-5
notes: cyclic; also called TY039; [D-Cys2, Cys5]TY027
Consider B9, for which the “[35S]GTPγS binding EC50” value with human δ opioid receptor [13] was found to be 0.9 nM; with rat µ opioid receptor [14], 118 nM. The “[35S]GTPγS binding Emax” value worked out at 37% with human δ opioid receptor [13] and 17% with rat µ opioid receptor [14]. In addition, the “[35S]GTPγS binding LogEC50” value in the experiment with human δ opioid receptor [13] is -9; with rat µ opioid receptor [14], -6.9. Besides, the inhibitory constant (Ki) turned out to be 11 nM with human δ opioid receptor [15] and 200 nM with rat µ opioid receptor [16]. Further, the results for the LogIC50 with human δ opioid receptor [15], with rat µ opioid receptor [16] and with rat NK1 receptor [17] were -7.6, -6.4 and -5.8, respectively.

B10: TyrDAlaGlyPheNleProLeuTrpOBn(CF3)2 (peptide)
peptide: YAGFXPLW
modifications: D-Ala at 2; Nle at 5 (written X); C-terminal O-3,5-Bzl(CF3)2 ester
notes: also called TY018
For the molecule B10, the “GPI/LMMP SP antagonist Ke” value in the experiment with guinea pig NK1 receptor [18] turned out to be 7.9 nM. Also, the “GPI/LMMP IC50” value in experiment [19] was 372 nM. Further, in the experiment with human δ opioid receptor [20], the “GTP binding EC50” value was determined as 4 nM and the “GTP binding Emax” value worked out at 131%. For the same molecule, the Ki in the experiment with human δ opioid receptor [21] was 1.8 nM.

B11: H-Tyr-DAla-Gly-Phe-Pro-Leu-Trp-O-Bzl (peptide)
peptide: H-Y[dA]GFPLW-OBn
modifications: also: TFA salt
notes: TFA salt; also called TY011
For the molecule B11, in the experiment with human NK1 receptor [22], the affinity corresponds to a Ki of 100 nM and the LogIC50 was -6.7. In the experiment with rat NK1 receptor [23], the Ki was 270 nM and the LogIC50 was -6.1.

What is called Ki is a dissociation constant, usually derived from enzyme kinetics or from competition with a known ligand. By IC50 is commonly meant the concentration that gives 50% inhibition. Low readings indicate higher potency, high ones lower potency.
